Results on 22 sequences are retold here after the DeepSol protein solubility set.

A short description of the series: soluble on expression in E. coli; label from the status in PepcDB or PDB records.
For the sequence “MKSFLVAGCTSDAGKSVVVAGLCRALTRRGLRVAPFKAQNMSNNSAVTPDGGEIGRAQALQAYACGLTPSVDFNPILLKPGSDRTSQLVVRGIATGNVSARSYIEHRTELRKIASESLNSLRERFDVVVCEGAGSPAETNLRATDVANFGLAEECDLPVYIVGDIDRGGVLAHFYGTHQIVDDADRARIKGFVVNKFRGDVSILEPGLQDLEDRLGVPTVAVLPFIHGLWIDAEDSLQSTIGATVGPAAAPLGTQRLRVAAIRLPRVSNATDVEALACEPGVTVTWTVDPDSVAEADLVVIPGSKATLSDLAWLRSTGVADAIMERARSQRPILGICGGFQMMCSHIDDPVESGSTTPVEGLGIFDVDIEFHPEKTLIRHENGGYEVHHGRVERSTEQPWIGNEGARTQSNFGTHRHGYLEDDEARRDFLGTVSTLAQRPGFVVAPATSFEAERNKQLDVIADAIEQHWDLDQLIAALT”, the “soluble on expression in E. coli” value was “not soluble”.
As to “MKSFVLFALFSVAAAQFGGYGRGRGGPGGPGGFEGGPAGAGGFQGNGAGELTYEAKGRLICGLTGVDKVRVVLWDRFRGRENIIYDETNTDVVGNFRLRATRNGFDGNLIQPFLTIYHDCDDASTPGLRKMTVQLPPQYTNQGSLALKSFDIGTWNLETSFAGEELEIQNGGLGGRPIGGSSFGQGNRGQFGGNREIFAHGGRSDFGDSSISV”, the “soluble on expression in E. coli” value was “not soluble”.
Then “MKSGVIPSSAVGQKINEWYRYIRTFSVPDAEVLKAEIQQELKHMQHDSNLLLYYSLMEFRHQLMLDYLEPLEKLNIEDQPSLSELSRNIDSNQADLKGLLDYYVNFFRGMYEFDKREFISAITYYKQAEKKLSFVADHIERAEFYFKIAEAYYYMKQTYFSLINIKNAYEIYVEQETYNVRIIQCHFVFGVNLMDERNFEQAARHFKLALNMAQAEQKAQLVGRAYYNLGLCYYNQDLLDPAIDYFEKAVSTFESSRIVNSLPQAYFLITLIYYKQGKHDKASEYHKRGYEYAKETDDADYAVKFEFLQSLYLDQPNEEGIERCFQYLKNKNMYADIEDLALEVAKYYYEQKWFKLSASYFLQVEEARKQIQRSEGLYEIEI”, with “soluble”.
On to “MKSKYEPLFDKVELPNGVELRNRFVLAPLTHISSNDDGTISDVELPYIEKRSQDVGITINAASNVSDVGKAFPGQPSIAHDSNIEGLKRLATAMKKNGAKALVQIHHGGAQALPELTPDGDVVAPSPISLKSFGQKQEHSAREMTNEEIEQAIKDFGEATRRAIEAGFDGVEIHGANHYLIHQFVSPYYNRRNDVWANQYKFPVAVIEEVLKAKEAYGNKDFIVGYRLSPEEAESPGITMEITEELVNKISHMPIDYIHVSMMDTHATTREGKYAGQERLPLIHKWINGRMPLIGIGSIFTADEALDAVENVGVDLVAIGRELLLDYQFVEKIKDGREDEIINYFDPEREDNHHLTPNLWHQFNEGFYPLPRKDK”, for which the “soluble on expression in E. coli” value was “not soluble”.
The entry for “MKSLSALEAEQWITIRSIFLIDLPFRSFSFSLPAEEKQDLQCNLQNLVNHNFSFLQVIHLQVSHINDADVLTGLNGRIGSFLLPSIATGTGTATGTAATTGASAITASSRSRRILGDEFEDHVIVPATCGSRAVVGKPQRIIDLETKVDTSNIPHRTVLFLFHTGTSKRGIENPQAVNLHLIPCYEHLLHRADKGLHHMLHIFHRKRTDRLDLTRQRLDRIKFRFPRLGFEHIHHRRFVITNLFFALIAHHRHCCHTEFVLKKRRTFSLSVGETKIRQCTGNFPDYDGLCRTMTG” is “not soluble”; for “MKSYTKHTHTNRLASESSPYLLQHAHNPVEWFPWGEEALQKAKAEDKPILVSIGYSACHWCHVMEHECFEKEEVAAVMNDLFINIKIDREERPDLDQIYMDAVSAMGLRGGWPLNVFLTPDAKPFYGGTYFPQDHWLNLLGQISNAYLNHREDILKSAESFTESLNQSDVF” it is “not soluble”; for “MKTIYIYKGSIPEDKKKGDNAIWVTEKKIIDALEKAANSNGESTQSNPKTIALQAAKKETKKSNKKESKTIGYTTTGYVNADGKHIFDTDRINNERFDRKIIIGATLETLDQSSTLQSGEAIVLPAPGKYKSSDQKTVMTAQGPKIIGIHANAKENEETQKFVNWF” it is “soluble”.
Then “MKTLIKNGKIIKKENQLIEAALWLENGVIHAIGESFDEADFEQVFDANGQLITPGLVDVHVHFREPGFTYKETIKTGSKAAARGGFTTVCAMPNLNPVPDTAEKLSEVYDLIQKDAVVKVLQYAPITEELRSEVLTNQKALKEAGAFAFTNDGVGVQTAGTMYLAMKEAAALNMALVAHTEDESLLFGGVMHEGEVSKKLGLPGILSATEASQIARDITLAKETGVHYHVCHVSTEESVRVIRDAKKAGIHVTAEVSPHHLILVDEDIPGDEGFWKMNPPLRGLADRQALIDGLLDGTIDCIATDHAPHGLEEKQQSFLNAPFGIVGSETAFQLIYTNFVETGIFTLEQVIDWMAVKPAEIFGLNAGTLTIGAPADIAVFDLATAAPIDAEAFESMAVNTPFTGWTVKGKTLMTFVDGALAWSEEAQ”, with “not soluble”; and “MKTMSEEDSRTASRYAMIREVLRNAIVSGAAAKGLVLLEAPLGELFGTSRVPVRKALNLLHEEGLISRFDGRGYLVNPERQHVEPLRLSLSHKQFGLDSNEELVDTRPLGERIHDEIGAALSACIAFGHYRLDEQSAAQHYGVSRSVVREALMRLRDRGLVEKEPYSQWLAGPLTAREITEDYELRACLEPEALRLTAPQLSRETLEAMLTRVVEAQNAEQCSLEDIERLEEDLHQQCLAGLQNRKIATLISQAQSPMIINRIFYRLLDIGADEAMLAEHRLIIELLLHGAFDAAALNLKEHLQRARQRMLQRLKVLSVLPEQEVPGYLTRLS”, with “not soluble”.
The entry for “MKTNPAVDSARLGLLLNELRLPAIKVMWPQFAERADKEGWPAARFLAAIIEHELAERDRRRIERHLAEARLLPGKTLDTFEFEAVPMISKAQVMAITAGDSWLEKGANLLLFGPPGGGKSHLASAIGLALIETGWRVMFTRTTDLVQKLQVARRELGLEAAINRLDRFHLLILDDLAYVTKDQAETSVLFELISARYERRSLLITANQPFGEWGKVFPDPSNARYPCCAAALEHHHHHH” is “not soluble”; for “MKTNTIITIGRQFGSAGREIGYQIADYFGIKLYDKEMLSRAAKESGICEEIFETHDEKPTNSFLYSLVMDTYSMGYSGGSYSDMPINHKVFLAQFDAIKKIADEGPCILVGRCADYALESYDNVVNVFIHADLDARIRRIARIYNLTDAKAKDMIIKTDKKRASYYNYYTNKKWSDSESYELCLSSSELGIEGTAKAIEQYVMLKEQIQRDDKIL” it is “not soluble”.
As for “MKTSEWIDISQPLNNNIATWPGDTPFSYEVSWSKEESGSVNVGKLTMSIHTGTHIDAPFHFDNDGKKVLDLDVQVYVGPARIIDVSNLESIGKKELESFHLEGVERLLLRTSSHGKAEEFPEVIPHLRADIASFLSEKGIRLIGVDVPSVDPLDDKELAAHHQLFKHGIHILENVVLDHVADGDYELIALPLALTDADGSPVRAVIRPILEHHHHHH”, the “soluble on expression in E. coli” value is “soluble”.
As to “MKTSSIIEFKNPISKYQHDVDDGLHSDYKVINNEFIHKSIRILENYQFIQSLSHADKSTLIQHLKIRKYYHNQTVYNQNDPCTDINILLEGALKLGWSTSQGKYHTDIFVPSGTLINIVPIVTGQPLLHDHIAQGRTVIANLPGQLFVDVIRNNADALFMVLKLICVRTQLNREQNFIYSTETLQTRLAKKLVFLVDYHSYQDKDKILLNLKLSQENLAELLQTSRQSINKELAALSNQNIIEVKYNQIFILDFEKLSNIAQTHQFHSTTKFL”, the “soluble on expression in E. coli” value is “not soluble”.
For the sequence “MKVAVTGRPGVGKTTLCLKVHESLKDKMTVGGFITKEVRRDGVRVGFKLVDLSSGNEEWLARVGEGKARVGKYAVNVEGLEEFLDSVRTDADLVIIDEVGPMELKSRKFVRFVENLMGRERLLFTIHLKSRHRLLDRIRREFKVYVIDESNRNRIAEEITRILEGLEHHHHHH”, the “soluble on expression in E. coli” value was “soluble”.
The entry for “MKVDSLHNLSYKEEFEGDMKRSTAAYKKVSEDASIGSTYIADISEVGSQISGEPVQRIKIPEHRQILKRSLIKPVIMAGGNGKRLWPLASKDKPKQFKKILSDLTLLQQTLNRNKFLGQPTIITSKKYESITKEQATEIDVEIALITEPLQKNTAVCAIITALSATALGFDIVVLLPSNHHIADDINYLNTINKALHYVNECGICTIFL” is “not soluble”; for “MKVERVERVEDIDFEGLLKEGYTCFFFDFDNTLVPWKESKLEESKRRLLIELAKKARVVVVSNGKPRKVDLPVMFIWRAGKPFSLKLWRFLKKEKIDPKRCVMIGDQIFTDVLTGKIFGFRVIKVEPISAKEFFGTKILRFFEKILEGKVR” it is “not soluble”; for “MKVFNRPILFDIVSRGSPDGLEGLLSFLLTHKKRLTDEEFREPSTGKTCLPKALLNLSAGRNDTIPILLDIAEKTGNMREFINSPFRDVYYRGQTALHIAIERRCKHYVELLVEKGADVHAQARGRFFQPKDEGGYFYFGELPLSLAACTNQPHIVHYLTENGHKQADLRRQDSRGNTVLHALVAIADNTRENTKFVTKMYDLLLIKCAKLFPDTNLEALLNNDGLSPLMMAAKTGKIGIFQHIIRREIADAAAHHHHHH” it is “soluble”.
Then “MKVGIIGKQGRLGRVLQAILDENGFDVVENNWDIAFLSVPIGAAISYIEKYDGPFIEVSSVKTPFKKYAGRIVSIHPLFGPASYKDGVHRTVLFIKDISMPEYRDLIAEMFRGYEIVDTTADVHDKEMAKSLALPYAVAIISKNIDTAFRTKSFDTFKGIVRILENENEEVMLDTINKNPYAQYMYDIVKNLGMVIQMAGDPLEHHHHHH”, with “not soluble”; and “MKVIIFGGSGFLGQQIAKILVQRQHQVISVSRHGKPATLSASWSHQVQWVCSDVTHDTNWQEQVQRADWVIDTVGILFENPRKKKTYQRLILTPVKKISSFLAQQKKPAKFLFISANTVPFPLRKYMDAKLAAEELIHQEVAEAVIFYPSLLVGQERTGTILFSKCIYFFKKIPFLKNLFIGYDPVPVAEMAQEIVHVLEGGNSIYTHRRTR”, with “not soluble”; and “MKVILVNGSPHKDGCTFTALEEVAKALNEEGIDTEFFHLGTKPLNGCIACGHCRKHQRCVFPDSVNEFLDLAQEADGFIFGSPVHYAAAGGAITSFLDRVFYTDSGSGKQAFYLKPAAAVVSARRAGTTASLDQLNRYFTIKEMPIISSKYWNMVHGNTPEEVRKDEEGLQIMRTLGRNMAWFLKCKEAGIRAGIPFPSQEEGLRTNFIRLEHHHHHH”, with “soluble”.
On to “MKVLKPGLLTTVQDIGRTGYQKYGVLASGAMDTVSLRIANLLIGNGENEAGLEITMMGPGPSFHFSKQTLIAVTGADFTLRINDEEAPLWKPVLIKENSTVSFGPCKLGSRAYLAAAGGIEVPAVMESKSTYVRGSIGGLHGRALQKEDELNIGEMSALSQTILSRLSSQLAHTVIGSTDVVSQPWEISVIEDESRHSSAGGISICLLHSRIKNAFSEEAFRVTPQSDRMGYRLKGEPLDLTAPLEMVSAAVSFGAAQMPPAGKPYYPCLQDRQDDWPAIRGIAHIISADLPIVSQIMPGEHVQFEPVSLQEAEALAVEREQHIKELKTRMKMEWLT”, for which the “soluble on expression in E. coli” value is recorded as “not soluble”.
The entry for “MKVLTVFGTRPEAIKMAPLVHALEKDPHFEAKVCVTAQHREMLDQVLTLFSIVPDYDLNIMQPGQGLTEITCRILEGLKPILADFKPDVVLVHGDTTTTIATSLAAFYQRIPVGHVEAGLRTGDLYSPWPEEANRTLTGHLAMYHFAPTENSRQNLLRENIPDERIFVTGNTVIDALIWVRDRVLTSDTLQAELAEQYPFLNANKKMILVTGHRRESFGQGFEHICQALAEIAAANQNVQIVYPVHLNPNVSEPVNRILGHVENVVLIEPQDYLPFVWLMNHAWLILTDSGGIQEEAPSLGKPVLVMRETTERPEAITAGTVRLIGTDSRRIVAEVMRLLHDENEYQTMSRAHNPYGDGQSCARILQALKSYRVSL” is “not soluble”.
